Data from article doi:10.1101/2025.03.06.641832 (bioRxiv, 2025).

Target: the molecule itself
Test: SEC

B1: recombinant WT influenza A NP (NΔ7NP, C-terminal His tag) (natural protein)
chain: RSYEQMETDGERQNATEIRASVGKMIGGIGRFYIQMCTELKLSDYEGRLIQNSLTIERMVLSAFDERRNKYLEEHPSAGKDPKKTGGPIYRRVDGKWMRELILYDKEEIRRIWRQANNGDDATAGLTHMMIWHSNLNDATYQRTRALVRTGMDPRMCSLMQGSTLPRRSGAAGAAVKGVGTMVMELIRMIKRGINDRNFWRGENGRRTRIAYERMCNILKGKFQTAAQRAMVDQVRESRNPGNAEFEDLIFLARSALILRGSVAHKSCLPACVYGPAVASGYDFEREGYSLVGIDPFRLLQNSQVYSLIRPNENPAHKSQLVWMACHSAAFEDLRVSSFIRGTKVVPRGKLSTRGVQIASNENMETMESSTLELRSRYWAIRTRSGGNTNQQRASSGQISIQPTFSVQRNLPFDRPTIMAAFTGNTEGRTSDMRTEIIRLMESARPEDVSFQGRGVFELSDEKAASPIVPSFDMSNEGSYFFGDNAEEYDN
binding result: binds
